T1: Human IRP60 protein (Kactus) (human, UniProt Q9UGN4 18-178, limits assumed)
T1 construct: Commercial soluble protein used as the flow cytometry staining reagent; also called CD300a
T1 sequence (looked up): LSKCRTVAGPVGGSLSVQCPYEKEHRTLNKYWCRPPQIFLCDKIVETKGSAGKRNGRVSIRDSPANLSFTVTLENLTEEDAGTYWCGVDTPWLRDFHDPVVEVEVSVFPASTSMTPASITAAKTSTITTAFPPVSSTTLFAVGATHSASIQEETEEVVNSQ


Assays:
[1] = molecular target: T2, Human SIRPa protein (Acro) (human, UniProt P78324 31-370, limits assumed); test: flow cytometry; CAR19-α T cells stained with soluble human SIRPa protein
T2 construct: Commercial soluble protein used as the flow cytometry staining reagent; also called SIRPα; signal regulatory protein a
Description: Using a flow cytometry, the expression of anti-CD19 scFv in CAR-T cells was detected with FITC goat anti-human Fab (Thermo Fisher), and the expression of anti-SIRPa scFv was detected with Human SIRPa protein (Acro). It can be seen that all the CARs in the CAR-T cells prepared in this example can be effectively expressed (FIG. 7), and the immunosuppressive molecule in CAR19-α T cells can also be effectively expressed (FIG. 8).

[2] = molecular target: T1, Human IRP60 protein (Kactus); test: flow cytometry; CAR19-60 T cells stained with soluble human IRP60 protein
Description: Using a flow cytometry, the expression of anti-CD 19 scFv in CAR-T cells was detected with FITC goat anti-human Fab (Thermo Fisher), and the expression of anti-IRP60 scFv was detected with Human IRP60 protein (Kactus). It can be seen that all the CARs in the CAR-T cells prepared in this example can be effectively expressed (FIG. 12), and the immunosuppressive molecule in CAR19-60 T cells can also be effectively expressed (FIG. 13).

T2 sequence (P78324 31-370 limits assumed): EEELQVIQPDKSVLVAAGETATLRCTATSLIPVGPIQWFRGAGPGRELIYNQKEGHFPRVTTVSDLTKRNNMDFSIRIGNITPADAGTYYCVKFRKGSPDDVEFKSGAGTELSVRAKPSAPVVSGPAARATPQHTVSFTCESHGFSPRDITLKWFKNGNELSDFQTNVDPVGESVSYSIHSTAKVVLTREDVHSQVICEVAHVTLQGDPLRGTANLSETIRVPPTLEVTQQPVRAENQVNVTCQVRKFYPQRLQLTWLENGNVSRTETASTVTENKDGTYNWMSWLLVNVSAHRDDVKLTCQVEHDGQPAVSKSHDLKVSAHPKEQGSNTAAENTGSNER

binding result [1] | binding result [2] | Binder
binds | – | immunosuppressive molecule targeting SIRPa (anti-SIRPa scFv, IgG4 hinge region, CD28 transmembrane region, CD28 co-stimulatory domain), expressed on CAR19-α T … (scFv, Membrane-anchored scFv on B2M-knockout T cells that also express a CD19 CAR; also called anti-SIRPa antibody) EVQLVESGGGLVQPGGSLRLSCAASGFNISYYFIHWVRQAPGKGLEWVASVYSSFGYTYYADSVKGRFTISADTSKNTAYLQMNSLRAEDTAVYYCARFTFPGLFTGFFGAYLGSLDYWGQGTLVTVSSGGGSGGGSGGGSDIQMTQSPSSLSASVGDRVTITCRASQSVSSAVAWYQQKPGKAPKLLIYSASSLYSGVPSRFSGSRSGTDFTLTISSLQPEDFATYYCQQAVNWVGALVTFGQGTKVEIKRESKYGPPCPPCPFWVLVVVGGVLACYSLLVTVAFIIFWVRSKRSRLLHSDYMNMTPRRPGPTRKHYQPYAPPRDFAAYRS
– | binds | immunosuppressive molecule targeting IRP60 (anti-IRP60 scFv, IgG4 hinge region, CD28 transmembrane region, CD28 co-stimulatory domain), expressed on CAR19-60 T … (scFv, Membrane-anchored scFv on B2M-knockout T cells that also express a CD19 CAR; also called anti-IRP60 antibody) EVQLQQSGAELVKPGASVKLSCKASGYTFTSYWMQWVKQRPGQGLEWIGEIDPSDSYTNYNQKFKGKATLTVDTSSSTTYMQLSSLTSEDSAVYYCARWGMAYGTSSYWYFDVWGTGTTVTVSSAGGGSGGGSGGGSDIQMTQTTSSLSASLGDRVTISCRASQDISNYLNWYQQKPDGTVKLLIYYTSRLHSGVPSRFSGSGSGTDYSLTISNLEQEDIATYFCQQGNTLPWTFGGGTKLEIKESKYGPPCPPCPFWVLVVVGGVLACYSLLVTVAFIIFWVRSKRSRLLHSDYMNMTPRRPGPTRKHYQPYAPPRDFAAYRS

Source: patent US20260201048A1 (NANJING BIOHENG BIOTECH, published 2026)
